Experimental data reported in patent US20230242633A1 (KANAPH THERAPEUTICS, published 2023).
Each block holds one binder with its values, some of them ahead of it.

Columns and labels:
mouse C3b [1] = molecular target: T1, mouse C3b (mouse, UniProt P01027 25-666; P01027 749-1663, limits assumed); assay: ELISA, mouse C3b immobilised on the plate; no upper plateau in the range shown
Source text: (§1) Specifically, a human C3b protein was immobilized on a plate, and C1.01, C1.02, C1.03, and C1.04, and hIgG1 as a control were bound thereto. Next, an anti-human immunoglobulin G antibody and an anti-horseradish peroxidase (HRP) antibody were sequentially bound thereto. Moreover, a mouse C3b protein was immobilized on a plate, and C1.01m to C1.03m containing mouse CRIg were bound to mouse C3b.

mouse C3b [2] = molecular target: T1, mouse C3b; assay: Biacore SPR, 1:1 fit; analyte series 0.78125-50 nM; the analyte is not printed on the sheet, mouse C3b by legend paragraph 26 and the C3b dilution series of paragraph 225
Protocol: (§2) A C3b stock solution was diluted to 50 nM using a 1×HBS-EP+ buffer. Human VEGF165 was diluted to 5 nM using a 1×HBS-EP+ buffer. The 50 nM and 5 nM solutions were then diluted to 0.78125 nM and 0.078125 nM. In the sample step, the diluted antigens were injected into the flow cells at a rate of 30 μL/min. Two 0 nM antigens (1×HBS-EP+ buffer) were used and removed from the reference signal. Binding for 180 seconds and separation for 400 seconds were performed. After the separation time, a stabilization step for 60 seconds was performed. In the regeneration step, 10 mM glycine (pH 1.5) was injected into the flow cells at a rate of 30 μL/min for 30 seconds, followed by a stabilization step for 60 seconds.
(§3) After subtracting the reference and 0 nM values from the sample values, binding kinetics were calculated using Biacore Insight Evaluation Software (Version 2.0.15.12933) and 1:1 binding model for curved fitting.

human VEGF165 = molecular target: T2, human VEGF165 (human, UniProt P15692-4 27-191); assay: Biacore SPR; the analyte is not printed on the sheet, human VEGF165 by legend paragraph 26
T2 construct: also called human VEGF165 protein
T2 sequence (P15692 other isoform, or with tags, fused parts or gaps): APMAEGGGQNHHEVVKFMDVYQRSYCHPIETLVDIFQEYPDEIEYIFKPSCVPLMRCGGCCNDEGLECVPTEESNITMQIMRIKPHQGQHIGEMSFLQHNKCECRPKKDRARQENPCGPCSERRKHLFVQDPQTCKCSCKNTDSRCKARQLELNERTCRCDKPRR
Protocol: In order to measure the binding force of the fusion protein, the physical properties of the prepared fusion protein were analyzed using Biacore 8K (GE Healthcare, 29129951) instrument.
as §2, §3

mouse C3b [3] = molecular target: T1, mouse C3b; assay: ELISA, mouse C3b immobilised on the plate; the printed value lies above the highest concentration shown (Log10 about 1.2), the curve reaches only OD450 about 1
Source text: as §1

T1 sequence (P01027 25-666 limits assumed, chain 1 of 2): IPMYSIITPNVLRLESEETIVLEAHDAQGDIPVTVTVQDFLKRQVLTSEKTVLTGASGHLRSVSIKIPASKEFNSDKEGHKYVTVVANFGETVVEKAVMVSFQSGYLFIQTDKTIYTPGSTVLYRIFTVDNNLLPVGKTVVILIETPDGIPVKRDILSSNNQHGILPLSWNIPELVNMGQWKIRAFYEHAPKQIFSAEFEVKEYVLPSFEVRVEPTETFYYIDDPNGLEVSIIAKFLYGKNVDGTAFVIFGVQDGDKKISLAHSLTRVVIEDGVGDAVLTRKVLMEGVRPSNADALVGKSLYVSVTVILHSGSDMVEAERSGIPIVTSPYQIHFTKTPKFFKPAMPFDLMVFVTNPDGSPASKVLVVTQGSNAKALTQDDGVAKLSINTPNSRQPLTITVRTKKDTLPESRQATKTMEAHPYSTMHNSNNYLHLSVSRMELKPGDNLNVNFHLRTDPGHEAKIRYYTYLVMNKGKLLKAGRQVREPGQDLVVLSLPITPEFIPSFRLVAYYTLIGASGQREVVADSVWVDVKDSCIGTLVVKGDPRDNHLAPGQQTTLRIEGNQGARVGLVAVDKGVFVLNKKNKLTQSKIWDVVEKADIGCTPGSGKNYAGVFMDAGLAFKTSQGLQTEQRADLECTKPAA
T1 sequence (P01027 749-1663 limits assumed, chain 2 of 2): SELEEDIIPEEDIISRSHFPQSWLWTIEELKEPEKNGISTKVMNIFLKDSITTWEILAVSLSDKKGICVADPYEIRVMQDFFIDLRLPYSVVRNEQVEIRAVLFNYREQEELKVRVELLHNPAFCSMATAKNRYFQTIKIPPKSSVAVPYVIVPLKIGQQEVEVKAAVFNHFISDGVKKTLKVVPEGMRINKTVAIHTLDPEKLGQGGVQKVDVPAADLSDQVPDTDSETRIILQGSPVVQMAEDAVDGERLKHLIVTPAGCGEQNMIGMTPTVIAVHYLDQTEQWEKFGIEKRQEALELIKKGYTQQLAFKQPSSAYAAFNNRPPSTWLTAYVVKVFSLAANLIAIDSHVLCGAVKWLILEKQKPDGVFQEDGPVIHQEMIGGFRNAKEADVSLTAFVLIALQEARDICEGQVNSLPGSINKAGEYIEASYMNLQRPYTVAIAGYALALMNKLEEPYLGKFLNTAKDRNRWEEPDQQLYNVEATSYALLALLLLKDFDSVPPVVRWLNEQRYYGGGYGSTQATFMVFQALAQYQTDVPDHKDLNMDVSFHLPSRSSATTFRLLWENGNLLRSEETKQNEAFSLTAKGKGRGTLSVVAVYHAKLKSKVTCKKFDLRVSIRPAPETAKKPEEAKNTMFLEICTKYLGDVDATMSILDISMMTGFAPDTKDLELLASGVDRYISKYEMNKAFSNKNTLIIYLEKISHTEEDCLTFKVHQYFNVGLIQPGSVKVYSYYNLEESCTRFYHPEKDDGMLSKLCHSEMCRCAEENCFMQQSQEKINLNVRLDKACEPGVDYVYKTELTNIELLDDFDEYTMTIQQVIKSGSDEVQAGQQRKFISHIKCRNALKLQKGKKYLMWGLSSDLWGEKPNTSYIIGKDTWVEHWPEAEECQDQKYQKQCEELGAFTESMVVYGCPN

EC50 (mouse C3b [1]): 0.821 µg/mL
Kd (mouse C3b [2]): 0.987 pM
B1: C1.01m (mu CRIg-mu IgG2a Fc DANG) (Fc fusion)
chain: HPTLKTPESVTGTWKGDVKIQCIYDPLRGYRQVLVKWLVRHGSDSVTIFLRDSTGDHIQQAKYRGRLKVSHKVPGDVSLQINTLQMDDRNHYTCEVTWQTPDGNQVIRDKIIELRVRKYNPPRINTEAPTTLHSSLEATTIMSSTSDLTTNGTGKLEETIAGSGRNLPGGGGSEPRGPTIKPCPPCKCPAPNLLGGPSVFIFPPKIKDVLMISLSPIVTCVVVAVSEDDPDVQISWFVNNVEVHTAQTQTHREDYGSTLRVVSALPIQHQDWMSGKEFKCKVNNKDLPAPIERTISKPKGSVRAPQVYVLPPPEEEMTKKQVTLTCMVTDFMPEDIYVEWTNNGKTELNYKNTEPVLDSDGSYFMYSKLRVEKKNWVERNSYSCSVVHEGLHNHHTTKSFSRTPGK

EC50 (mouse C3b [1]): 1.85 µg/mL
binding result (human VEGF165): binds
Kd (mouse C3b [2]): 7.97 pM
B2: C1.02m (mu CRIg-mu IgG2a Fc DANG-VEGF binder) (Fc fusion)
chain: HPTLKTPESVTGTWKGDVKIQCIYDPLRGYRQVLVKWLVRHGSDSVTIFLRDSTGDHIQQAKYRGRLKVSHKVPGDVSLQINTLQMDDRNHYTCEVTWQTPDGNQVIRDKIIELRVRKYNPPRINTEAPTTLHSSLEATTIMSSTSDLTTNGTGKLEETIAGSGRNLPGGGGSEPRGPTIKPCPPCKCPAPNLLGGPSVFIFPPKIKDVLMISLSPIVTCVVVAVSEDDPDVQISWFVNNVEVHTAQTQTHREDYGSTLRVVSALPIQHQDWMSGKEFKCKVNNKDLPAPIERTISKPKGSVRAPQVYVLPPPEEEMTKKQVTLTCMVTDFMPEDIYVEWTNNGKTELNYKNTEPVLDSDGSYFMYSKLRVEKKNWVERNSYSCSVVHEGLHNHHTTKSFSRTPGGGGGSGGGGSSDTGRPFVEMYSEIPEIIHMTEGRELVIPCRVTSPNITVTLKKFPLDTLIPDGKRIIWDSRKGFIISNATYKEIGLLTCEATVNGHLYKTNYLTHRQTNTIIDVVLSPSHGIELSVGEKLVLNCTARTELNVGIDFNWEYPSSKHQHKKLVNRDLKTQSGSEMKKFLSTLTIDGVTRSDQGLYTCAASSGLMTKKNSTFVRVHEK

EC50 (mouse C3b [3]): 31.1 µg/mL
B3: C1.03m (mu IgG2a Fc DANG-mu CRIg) (Fc fusion)
chain: EPRGPTIKPCPPCKCPAPNLLGGPSVFIFPPKIKDVLMISLSPIVTCVVVAVSEDDPDVQISWFVNNVEVHTAQTQTHREDYGSTLRVVSALPIQHQDWMSGKEFKCKVNNKDLPAPIERTISKPKGSVRAPQVYVLPPPEEEMTKKQVTLTCMVTDFMPEDIYVEWTNNGKTELNYKNTEPVLDSDGSYFMYSKLRVEKKNWVERNSYSCSVVHEGLHNHHTTKSFSRTPGGGGGSGGGGSHPTLKTPESVTGTWKGDVKIQCIYDPLRGYRQVLVKWLVRHGSDSVTIFLRDSTGDHIQQAKYRGRLKVSHKVPGDVSLQINTLQMDDRNHYTCEVTWQTPDGNQVIRDKIIELRVRKYNPPRINTEAPTTLHSSLEATTIMSSTSDLTTNGTGKLEETIAGSGRNLPG
